Data published in patent publication US20030144209A1 (MASSACHUSETTS GERNERAL HOSPITAL, published 2003).
One block for each molecule: values may come before it. Square brackets hold non-standard residues; d marks the D form. Ends that are not written are not given here. * marks the point of attachment. Propionyl = CCC(=O)*

Columns and labels:
human PTH-1 receptor = target: T1, human PTH-1 receptor (human, UniProt Q03431 27-593); assay: cell-based or functional assay
T1 sequence (looked up): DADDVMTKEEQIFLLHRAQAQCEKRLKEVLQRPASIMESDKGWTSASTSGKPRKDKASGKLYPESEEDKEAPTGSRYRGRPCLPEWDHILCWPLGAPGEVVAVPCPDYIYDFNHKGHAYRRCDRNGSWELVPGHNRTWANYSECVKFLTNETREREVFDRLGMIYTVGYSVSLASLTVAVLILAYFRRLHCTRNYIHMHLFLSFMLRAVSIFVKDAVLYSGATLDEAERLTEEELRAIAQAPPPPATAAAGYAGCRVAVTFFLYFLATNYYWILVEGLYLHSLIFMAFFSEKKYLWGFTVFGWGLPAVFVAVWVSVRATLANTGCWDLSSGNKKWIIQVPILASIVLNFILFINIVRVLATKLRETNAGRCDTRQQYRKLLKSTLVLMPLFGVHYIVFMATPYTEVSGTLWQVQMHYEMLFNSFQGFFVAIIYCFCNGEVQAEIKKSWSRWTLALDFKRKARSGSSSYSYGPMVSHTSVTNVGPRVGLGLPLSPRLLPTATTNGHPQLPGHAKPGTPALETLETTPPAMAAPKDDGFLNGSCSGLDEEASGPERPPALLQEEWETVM

human PTH-2 receptor [1] = target: T2, human PTH-2 receptor (human, UniProt P49190 25-550); assay: cell-based or functional assay
T2 sequence (P49190 25-550): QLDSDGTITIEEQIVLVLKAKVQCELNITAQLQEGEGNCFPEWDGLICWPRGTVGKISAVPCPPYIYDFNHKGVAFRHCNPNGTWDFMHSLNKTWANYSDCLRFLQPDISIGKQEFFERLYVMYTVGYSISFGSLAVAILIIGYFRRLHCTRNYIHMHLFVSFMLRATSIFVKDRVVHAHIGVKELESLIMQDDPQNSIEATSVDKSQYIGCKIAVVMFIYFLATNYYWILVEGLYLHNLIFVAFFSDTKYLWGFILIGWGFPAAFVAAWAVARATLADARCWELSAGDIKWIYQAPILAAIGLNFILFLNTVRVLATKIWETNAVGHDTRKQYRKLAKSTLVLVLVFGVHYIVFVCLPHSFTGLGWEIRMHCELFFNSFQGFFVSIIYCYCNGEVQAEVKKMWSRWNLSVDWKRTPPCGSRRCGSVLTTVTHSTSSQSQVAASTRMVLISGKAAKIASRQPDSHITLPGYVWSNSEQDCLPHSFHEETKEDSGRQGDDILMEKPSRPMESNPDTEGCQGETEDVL

human PTH-2 receptor [2] = target: T2, human PTH-2 receptor; assay: competitive displacement of 125I-[Nle8,21]rPTH(1-34) from HPR2-7 cells expressing the human PTH-2 receptor
Source text: Cell layers were washed three times before solubilization for determination of cell-associated radioactivity.

B2: desamino-[Gly^1]hPTH(1-34)NH2 (peptide)
peptide: [Ac]VSEIQLMHNLGKHLNSMERVEWLRKKLQDVHNF-NH2
notes: Analog of human PTH(1-34) in which Ser1 is replaced by desamino glycine; also called [desaminoGly^1]; PTH(1-34); desamino-[Gly^1] peptide
fold higher apparent binding affinity relative to hPTH(1-34) (human PTH-2 receptor [2]): 10 fold | EC50 of AC activation, fold lower than hPTH(1-34) (human PTH-2 receptor [1]): 3 fold | EC50 of adenylyl cyclase (AC) activation (human PTH-2 receptor [1]): 10 nM | PLC stimulation relative to 1000 nM hPTH(1-34) (human PTH-2 receptor [1]): 50 % greater | maximal AC response relative to hPTH(1-34) (human PTH-2 receptor [1]): 2 fold | fold decrease in AC activity relative to the amino-bearing peptide (human PTH-1 receptor): 10 fold

B3: desamino-[Ala^1]hPTH(1-34)NH2 (peptide)
peptide: [Propionyl]VSEIQLMHNLGKHLNSMERVEWLRKKLQDVHNF-NH2
SMILES: CCC(=O)N[C@H](C(=O)N[C@@H](CO)C(=O)N[C@@H](CCC(=O)O)C(=O)N[C@H](C(=O)N[C@@H](CCC(N)=O)C(=O)N[C@@H](CC(C)C)C(=O)N[C@@H](CCSC)C(=O)N[C@@H](Cc1c[nH]cn1)C(=O)N[C@@H](CC(N)=O)C(=O)N[C@@H](CC(C)C)C(=O)NCC(=O)N[C@@H](CCCCN)C(=O)N[C@@H](Cc1c[nH]cn1)C(=O)N[C@@H](CC(C)C)C(=O)N[C@@H](CC(N)=O)C(=O)N[C@@H](CO)C(=O)N[C@@H](CCSC)C(=O)N[C@@H](CCC(=O)O)C(=O)N[C@@H](CCCNC(=N)N)C(=O)N[C@H](C(=O)N[C@@H](CCC(=O)O)C(=O)N[C@@H](Cc1c[nH]c2ccccc12)C(=O)N[C@@H](CC(C)C)C(=O)N[C@@H](CCCNC(=N)N)C(=O)N[C@@H](CCCCN)C(=O)N[C@@H](CCCCN)C(=O)N[C@@H](CC(C)C)C(=O)N[C@@H](CCC(N)=O)C(=O)N[C@@H](CC(=O)O)C(=O)N[C@H](C(=O)N[C@@H](Cc1c[nH]cn1)C(=O)N[C@@H](CC(N)=O)C(=O)N[C@@H](Cc1ccccc1)C(N)=O)C(C)C)C(C)C)[C@@H](C)CC)C(C)C
notes: Analog of human PTH(1-34) in which Ser1 is replaced by desamino alanine; also called [desamino Ala^1]PTH(1-34); desamino-[Ala^1] peptide
fold higher apparent binding affinity relative to hPTH(1-34) (human PTH-2 receptor [2]): 10 fold | EC50 of AC activation, fold lower than hPTH(1-34) (human PTH-2 receptor [1]): 3 fold | EC50 of adenylyl cyclase (AC) activation (human PTH-2 receptor [1]): 10 nM | PLC stimulation relative to 1000 nM hPTH(1-34) (human PTH-2 receptor [1]): 50 % greater | maximal AC response relative to hPTH(1-34) (human PTH-2 receptor [1]): 2 fold | fold decrease in AC activity relative to the amino-bearing peptide (human PTH-1 receptor): 10 fold

Further lines, results first:

phospholipase C (PLC) activity in HKRK-B7 cells at 1000 nM (% of the hPTH(1-34) maximum) (human PTH-1 receptor): 50
Molecule: [Gly^1]hPTH(1-34)NH2 (from UniProt P01270 32-65) (peptide)

AC activation relative to hPTH(1-34) (human PTH-2 receptor [1]): ≤ 10 fold | AC activation relative to hPTH(1-34) (human PTH-1 receptor): ≤ 10 fold
B1: hPTH(2-34) (peptide, UniProt P01270 33-65, looked up)
peptide: VSEIQLMHNLGKHLNSMERVEWLRKKLQDVHNF-NH2
